# Source: PMC8809517, “Cofactor-independent RNA editing by a synthetic S-type PPR protein”
# Where a chain is given by its changes, count along the chain named.
# T1: GFP-9S library array, motif 4 ND N98C;D124A (synthetic construct, N98C;D124A)
# T1 chain: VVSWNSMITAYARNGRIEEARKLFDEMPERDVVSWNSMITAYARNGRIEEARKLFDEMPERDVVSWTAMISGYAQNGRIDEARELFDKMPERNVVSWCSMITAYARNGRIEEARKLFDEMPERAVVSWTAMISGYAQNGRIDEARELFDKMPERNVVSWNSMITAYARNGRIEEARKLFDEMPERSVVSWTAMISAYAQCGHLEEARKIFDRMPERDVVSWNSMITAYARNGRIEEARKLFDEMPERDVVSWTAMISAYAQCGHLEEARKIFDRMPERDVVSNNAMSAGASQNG
# T2: GFP-9S library array, motif 4 ND N98D;D124P (synthetic construct, N98D;D124P)
# T2 chain: T1 chain with C98D, A124P
# T3: GFP-9S library array, motif 4 ND N98M;D124C (synthetic construct, N98M;D124C)
# T3 chain: T1 chain with C98M, A124C
# T4: GFP-9S library array, motif 4 ND N98V;D124K (synthetic construct, N98V;D124K)
# T4 chain: T1 chain with C98V, A124K
# T5: GFP-9S library array, motif 4 ND D124F (synthetic construct, D124F)
# T5 chain: T1 chain with C98N, A124F
# Key:
# Experiment in all cases: high-throughput RNA pulldown from lysate on Ni-NTA beads; HRP: 50 mM Tris pH 8, 150 mM NaCl, 1 mM beta-mercaptoethanol, 50 ug/ml BSA, 3 ug/ml yeast RNA, 0.5% heparin; ITC and FP: Tris pH 8, 200 mM KCl, 5% glycerol; MST: 50 mM Tris pH 8, 200 mM NaCl, 1 mM DTT, BSA, heparin, 0.05% Tween 20
# Settings in all cases: tags: N-terminal His-eGFP
# [1] = molecular target: T1, GFP-9S library array, motif 4 ND …
# [2] = molecular target: T2, GFP-9S library array, motif 4 ND …
# [3] = molecular target: T3, GFP-9S library array, motif 4 ND …
# [4] = molecular target: T4, GFP-9S library array, motif 4 ND …
# [5] = molecular target: T5, GFP-9S library array, motif 4 ND D124F
Binder,Kd ([1]; label: 5' Cy5) [nM],Kd ([2]; label: 5' Cy5) [nM],Kd ([3]; label: 5' Cy5) [nM],Kd ([4]; label: 5' Cy5) [nM],Kd ([5]; label: 5' Cy5) [nM],Kd ([1]; label: 5' IRDye 800CW) [nM],Kd ([2]; label: 5' IRDye 800CW) [nM],Kd ([3]; label: 5' IRDye 800CW) [nM],Kd ([4]; label: 5' IRDye 800CW) [nM],Kd ([5]; label: 5' IRDye 800CW) [nM]
AUUACACGUGA (ssRNA) [Cy5-rpoA],114,202,99.7,97.1,109,–,–,–,–,–
AUUAGACGUGA (ssRNA) [Cy5-rpoA-G],92.3,157,68.8,91.4,140,–,–,–,–,–
AUUAUACGUGA (ssRNA) [IR-rpoA-U],–,–,–,–,–,159,501,193,128,63.9
AUUAAACGUGA (ssRNA) [IR-rpoA-A],–,–,–,–,–,98.2,341,85.3,146,202
